According to patent US20260274928A1:

Target: 25-strain panel of pre- and post-Omicron VSV-based SARS-CoV-2 S pseudotyped viruses
Experiment: cell-based or functional assay

B1: S2V29-v37.2 (antibody, V domains shown)
VH: EVQLVESGGSVVQPGRALRLSCAASGITFSSFGMYWVRQAPGKGLEWLGYIAYDGSDTYYADSVKGRFTISRDNSKNTLYLQMNSLRIEDTAVYYCAKDYYPLLSYYYGLDVWGQGTTVTVSS
VL: QSVLTQPRSVSGSPGQSVTISCTGTSSDVGAYNYVSWYQQHPGKAPKFMIYDVDQRPSGVPDRFSGSKSGNTASLIISGLQAEDEADYYCSSYAGSYIWVFGGGTQLTVL
- IC50, pseudovirus neutralization: 1.9 to 31.2 ng/mL
- median IC50, pseudovirus neutralization: 8.2 ng/mL
